Test system: Protein Kinase Bα/AKT1 catalytic domain (SEQ ID NO:3, tag removed) before PDK1 treatment
Sequence (chain, as listed by the source): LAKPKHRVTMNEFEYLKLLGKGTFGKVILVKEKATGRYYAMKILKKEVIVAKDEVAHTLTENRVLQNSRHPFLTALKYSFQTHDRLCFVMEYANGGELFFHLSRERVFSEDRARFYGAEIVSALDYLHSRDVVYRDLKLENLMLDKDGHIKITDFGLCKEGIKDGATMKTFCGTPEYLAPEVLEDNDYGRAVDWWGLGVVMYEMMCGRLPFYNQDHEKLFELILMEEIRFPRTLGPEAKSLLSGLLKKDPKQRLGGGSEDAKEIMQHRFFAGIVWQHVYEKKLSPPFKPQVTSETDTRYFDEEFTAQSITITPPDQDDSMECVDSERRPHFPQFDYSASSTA

PDK1 kinase
phosphorylation of AKT1 (mass spectrometry): Following 120 minute incubation with PDK1, AKT1 was converted into a mixture of mono and double phosphorylated proteins

From patent publication US7309594
